Values belong to the molecule of their own block, whether it stands above or below them.
Tests used:
[1] = biological target: T1, 4-chlorobenzoate:CoA ligase (CBL; CBAL) (Alcaligenes sp. AL3007, UniProt Q8GN86); experiment: direct spectrophotometric assay at […] nm, inhibition kinetics; format: biochemical
T1 sequence (Q8GN86 1-504): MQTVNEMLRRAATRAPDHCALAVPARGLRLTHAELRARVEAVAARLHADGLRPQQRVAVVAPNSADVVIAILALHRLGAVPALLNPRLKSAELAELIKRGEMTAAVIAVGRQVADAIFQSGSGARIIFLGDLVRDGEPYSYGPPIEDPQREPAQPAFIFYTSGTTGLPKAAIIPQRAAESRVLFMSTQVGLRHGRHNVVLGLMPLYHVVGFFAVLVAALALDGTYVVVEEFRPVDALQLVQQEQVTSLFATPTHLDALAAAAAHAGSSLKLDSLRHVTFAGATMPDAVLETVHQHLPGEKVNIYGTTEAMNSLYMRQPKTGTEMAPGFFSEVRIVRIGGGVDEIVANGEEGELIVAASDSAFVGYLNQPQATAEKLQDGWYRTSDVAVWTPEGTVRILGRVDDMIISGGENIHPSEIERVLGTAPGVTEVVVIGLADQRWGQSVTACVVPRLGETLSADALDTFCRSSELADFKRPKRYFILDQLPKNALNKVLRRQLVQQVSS

[2] = biological target: T1, 4-chlorobenzoate:CoA ligase (CBL; CBAL); experiment: coupled AMP-forming assay, inhibition kinetics; format: biochemical
[3] = substrate: Cc1ccc(C(=O)O)cc1; experiment: purified protein; conditions: 3.5 mM ATP, CoA varied, 15 mM MgCl2, pH 7.5, 25 °C
[4] = substrate: CC(C)(COP(=O)(O)OP(=O)(O)OC[C@H]1O[C@@H](n2cnc3c(N)ncnc32)[C@H](O)[C@@H]1OP(=O)(O)O)[C@@H](O)C(=O)NCCC(=O)NCCS; experiment: coupled AMP-forming assay, initial velocity; format: biochemical, Alcaligenes sp. AL3007; conditions: 3.5 mM ATP, 4-methylbenzoate varied, 15 mM MgCl2, pH 7.5, 25 °C
[5] = substrate: Nc1ncnc2c1ncn2[C@@H]1O[C@H](COP(=O)(O)OP(=O)(O)OP(=O)(O)O)[C@@H](O)[C@H]1O; experiment: coupled AMP-forming assay, initial velocity; format: biochemical, Alcaligenes sp. AL3007; conditions: 200 μM 4-methylbenzoate, CoA varied, 15 mM MgCl2, pH 7.5, 25 °C

Ki [1]: 120 ± 20 µM
Molecule: Nc1ncnc2c1ncn2[C@@H]1O[C@H](COP(=O)(O)O)[C@@H](O)[C@H]1O [AMP]

Molecule: O=P(O)(O)OP(=O)(O)O [PPi]
Ki [2]: 95 ± 10 µM

Ki [2]: 45 ± 10 µM
Molecule: CC(C)(COP(=O)(O)OP(=O)(O)OC[C@H]1O[C@@H](n2cnc3c(N)ncnc32)[C@H](O)[C@@H]1OP(=O)(O)O)[C@@H](O)C(=O)NCCC(=O)NCCSCc1ccc(Cl)cc1 [4-chlorobenzyl-CoA]

Molecule: CC(C)(COP(=O)(O)OP(=O)(O)OC[C@H]1O[C@@H](n2cnc3c(N)ncnc32)[C@H](O)[C@@H]1OP(=O)(O)O)[C@@H](O)C(=O)NCCC(=O)NCCSCC(=O)c1ccc(Cl)cc1 [4-CP-CoA, 4-chlorophenacyl-CoA]
Ki [2]: 21 ± 8 µM

B1: 4-chlorobenzoate:CoA ligase (CBL; CBAL) (Alcaligenes sp. AL3007) (protein)
chain: MQTVNEMLRRAATRAPDHCALAVPARGLRLTHAELRARVEAVAARLHADGLRPQQRVAVVAPNSADVVIAILALHRLGAVPALLNPRLKSAELAELIKRGEMTAAVIAVGRQVADAIFQSGSGARIIFLGDLVRDGEPYSYGPPIEDPQREPAQPAFIFYTSGTTGLPKAAIIPQRAAESRVLFMSTQVGLRHGRHNVVLGLMPLYHVVGFFAVLVAALALDGTYVVVEEFRPVDALQLVQQEQVTSLFATPTHLDALAAAAAHAGSSLKLDSLRHVTFAGATMPDAVLETVHQHLPGEKVNIYGTTEAMNSLYMRQPKTGTEMAPGFFSEVRIVRIGGGVDEIVANGEEGELIVAASDSAFVGYLNQPQATAEKLQDGWYRTSDVAVWTPEGTVRILGRVDDMIISGGENIHPSEIERVLGTAPGVTEVVVIGLADQRWGQSVTACVVPRLGETLSADALDTFCRSSELADFKRPKRYFILDQLPKNALNKVLRRQLVQQVSS
Km [3]: 30 ± 5 µM
kcat [3]: 8.0 ± 0.6 s⁻¹
Km [4]: 160 ± 20 µM
kcat [4]: 8.0 ± 0.6 s⁻¹
Km [5]: 180 ± 15 µM
kcat [5]: 8.2 ± 0.3 s⁻¹
